{
  "source": "paper PMC9732815",
  "about": "(Cell reports, 2022)",
  "key": {"Apn2Cat(D222N/E59Q) [1]": {"target": "T1, Apn2Cat(D222N/E59Q) (Saccharomyces cerevisiae, UniProt P38207 1-407, E59Q;D222N)", "T1 sequence": "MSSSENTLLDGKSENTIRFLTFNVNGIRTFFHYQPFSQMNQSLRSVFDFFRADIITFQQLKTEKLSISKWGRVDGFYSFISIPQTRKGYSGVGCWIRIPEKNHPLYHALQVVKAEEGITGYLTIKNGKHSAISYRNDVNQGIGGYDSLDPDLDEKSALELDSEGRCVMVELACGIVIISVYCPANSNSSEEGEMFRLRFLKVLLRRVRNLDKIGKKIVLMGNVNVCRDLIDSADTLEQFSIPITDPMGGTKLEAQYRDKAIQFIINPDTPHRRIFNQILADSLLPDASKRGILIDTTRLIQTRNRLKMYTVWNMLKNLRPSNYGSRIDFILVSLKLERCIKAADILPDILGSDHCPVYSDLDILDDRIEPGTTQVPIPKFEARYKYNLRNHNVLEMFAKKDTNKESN", "experiment": "X-ray crystallography"}, "Apn2Cat(D222N/E59Q) [2]": {"target": "T1, Apn2Cat(D222N/E59Q)", "experiment": "X-ray crystallography", "remark": "listed apart in the source"}, "crystal structure": {"target": "the molecule itself", "experiment": "crystal structure"}},
  "note": "Read-outs that look alike come from different tables or passages of the source.",
  "data": [
    {"binder": "duplex 1 (strand A self-annealed) (dsDNA, five phosphorothioate bonds at the 3' end of each strand (TCCGAAAT*T*T*C*G*G)) DNA 1: TCCGAAATTTCGG DNA 2: TCCGAAATTTCGG", "values": [
      {"measurement": "binding result", "setting": "Apn2Cat(D222N/E59Q) [1]", "value": "binds"}
    ]},
    {"binder": "duplex 2 (strand A + strand B) (dsDNA, five phosphorothioate bonds at the 3' end of each strand (A TCCGAAAT*T*T*C*G*G; B CCGAAATT*T*C*G*G*A)) DNA 1: TCCGAAATTTCGG DNA 2: CCGAAATTTCGGA", "values": [
      {"measurement": "binding result", "setting": "Apn2Cat(D222N/E59Q) [2]", "value": "binds"}
    ]},
    {"binder": "Recombinant S. cerevisiae Apn2^Cat (residues 1–407) (domain or fragment, UniProt P38207 1-407, looked up) MSSSENTLLDGKSENTIRFLTFNVNGIRTFFHYQPFSQMNQSLRSVFDFFRADIITFQELKTEKLSISKWGRVDGFYSFISIPQTRKGYSGVGCWIRIPEKNHPLYHALQVVKAEEGITGYLTIKNGKHSAISYRNDVNQGIGGYDSLDPDLDEKSALELDSEGRCVMVELACGIVIISVYCPANSNSSEEGEMFRLRFLKVLLRRVRNLDKIGKKIVLMGDVNVCRDLIDSADTLEQFSIPITDPMGGTKLEAQYRDKAIQFIINPDTPHRRIFNQILADSLLPDASKRGILIDTTRLIQTRNRLKMYTVWNMLKNLRPSNYGSRIDFILVSLKLERCIKAADILPDILGSDHCPVYSDLDILDDRIEPGTTQVPIPKFEARYKYNLRNHNVLEMFAKKDTNKESN", "values": [
      {"measurement": "stoichiometry N", "setting": "crystal structure", "value": 2}
    ]}
  ]
}
